Positions count from the first letter of the chain named. Names and notes keep the numbering of the source.
What was measured:
[1] = biological target: the molecule itself; test: cell-based or functional assay
[2] = biological target: the molecule itself; test: crystal structure; dimeric form (assembly intermediate); crystals with 100 mM POC, 3 mM DDM, 200 mM Li2SO4, PEG 8,000, sodium acetate pH 4.1-4.3; two crystal forms, 1.57 and 1.60 Å
[3] = biological target: the molecule itself; test: crystal structure; transmembrane pore; water-soluble FraC incubated with lipid vesicles, solubilised and purified in detergent (DDM 0.015%), crystallised by the lipid sponge phase method, 20 °C; 3.1 Å; 24 bound lipids modelled as SM

B1: FraC mutein V60E/W149A (natural protein)
chain: SADVAGAVIDGAGLGFDVLKTVLEALGNVKRKIAVGIDNESGKTWTAMNTYFRSGTSDIELPHKVAHGKALLYNGQKNRGPVATGVVGVIAYSMSDGNTLAVLFSVPYDYNWYSNWWNVRVYKGQKRADQRMYEELYYHRSPFRGDNGAHSRGLGYGLKSRGFMNSSGHAILEIHVTKA
haemolytic activity (horse erythrocytes), relative to wild-type FraC [1]: ~16 % of wild type

B2: FraC mutein V8C/K69C, oxidised (engineered disulfide bond between the N-terminal and beta-core regions) (natural protein)
chain: B1 chain with V8C, E60V, K69C, A149W
haemolytic activity (horse erythrocytes), relative to wild-type FraC [1]: 1 % of wild type

B3: fragaceatoxin C (FraC), wild type (natural protein)
chain: B1 chain with E60V, A149W
notes: no tag is mentioned; also called water-soluble FraC; monomeric FraC; source: E. coli BL21 (DE3), purified (Resource S cation exchange, Superdex 75 SEC)
stoichiometry N [2]: 2
stoichiometry N [3]: 8

— article PMC4351601, “Structural basis for self-assembly of a cytolytic pore lined by protein and lipid” (Nature Communications, 2015)
